tested on: Escherichia coli TOP10; test: shrunken log2 fold change of peptide-encoding DNA abundance (4.5 h post-induction vs induction); higher = less antimicrobial activity (less host growth inhibition); details: time post-induction: 4.5 h; library: site-saturation at positions 5, 18, 19, 20
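Also: peptides expressed intracellularly from a pBAD plasmid library in pooled LB shake-flask culture, induced with 0.3% L-arabinose, DNA abundance read by NGS, three biological replicates, DESeq2 with apeglm shrinkage.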

Row | Sequence | shrunken log2 fold change
1 | RRIRYRPPRLPRPRPRPEFSPRP | -0.307
2 | RRIRQRPPRLPRPRPRPCDYPRP | 0.07
3 | RRIRTRPPRLPRPRPRPWAFPRP | -0.185
4 | RRIRCRPPRLPRPRPRPCGSPRP | -0.0815
5 | RRIRCRPPRLPRPRPRPPAEPRP | 1.18
6 | RRIRKRPPRLPRPRPRPTQLPRP | 0.65
7 | RRIRCRPPRLPRPRPRPWDPPRP | -0.211
8 | RRIRERPPRLPRPRPRPLSGPRP | -0.135
9 | RRIRKRPPRLPRPRPRPLVCPRP | 0.191
10 | RRIRHRPPRLPRPRPRPRKMPRP | -0.246
11 | RRIRERPPRLPRPRPRPHFWPRP | 0.16
12 | RRIRVRPPRLPRPRPRPSVKPRP | -0.155
13 | RRIRSRPPRLPRPRPRPHDCPRP | -0.0708
14 | RRIRLRPPRLPRPRPRPLATPRP | 0.38
15 | RRIRPRPPRLPRPRPRPIQFPRP | -0.145
16 | RRIRLRPPRLPRPRPRPWTNPRP | 0.0169
17 | RRIRHRPPRLPRPRPRPWNAPRP | -0.0678
18 | RRIRDRPPRLPRPRPRPKSSPRP | 0.0319
19 | RRIRLRPPRLPRPRPRPMECPRP | -0.489
20 | RRIRIRPPRLPRPRPRPKKPPRP | 0.0487
21 | RRIRRRPPRLPRPRPRPDFNPRP | -0.155
22 | RRIRARPPRLPRPRPRPKMCPRP | -0.0542

Row | Sequence | shrunken log2 fold change
23 | RRIRDRPPRLPRPRPRPDWYPRP | -0.0602
24 | RRIRDRPPRLPRPRPRPEQNPRP | 0.517
25 | RRIRIRPPRLPRPRPRPNWEPRP | 0.00543
26 | RRIRIRPPRLPRPRPRPVAMPRP | -0.0657
27 | RRIRVRPPRLPRPRPRPLHNPRP | -0.143
28 | RRIRIRPPRLPRPRPRPQQHPRP | -0.551
29 | RRIRDRPPRLPRPRPRPANMPRP | -0.229
30 | RRIRGRPPRLPRPRPRPMNAPRP | 0.493
31 | RRIRHRPPRLPRPRPRPYAIPRP | -0.149
32 | RRIRSRPPRLPRPRPRPWAIPRP | -0.191
33 | RRIRKRPPRLPRPRPRPMRRPRP | 0.762
34 | RRIRGRPPRLPRPRPRPVEGPRP | 0.305
35 | RRIRFRPPRLPRPRPRPFCRPRP | -0.316
36 | RRIRPRPPRLPRPRPRPREMPRP | 0.319
37 | RRIRIRPPRLPRPRPRPFNAPRP | -0.551
38 | RRIRPRPPRLPRPRPRPIFYPRP | -0.102
39 | RRIRHRPPRLPRPRPRPDSMPRP | 0.0959
40 | RRIRKRPPRLPRPRPRPNWTPRP | -0.129
41 | RRIRQRPPRLPRPRPRPDVSPRP | 0.0409
42 | RRIRVRPPRLPRPRPRPFKAPRP | -0.316
43 | RRIRARPPRLPRPRPRPYDHPRP | -0.57
44 | RRIRHRPPRLPRPRPRPMHPPRP | -0.193

Row | Sequence | shrunken log2 fold change
45 | RRIRWRPPRLPRPRPRPQIDPRP | -0.688
46 | RRIRKRPPRLPRPRPRPYPIPRP | 0.11
47 | RRIRARPPRLPRPRPRPDSIPRP | -0.0582
48 | RRIRLRPPRLPRPRPRPVNHPRP | 0.197
49 | RRIRGRPPRLPRPRPRPKYTPRP | 0.101
50 | RRIRCRPPRLPRPRPRPNCLPRP | -0.19
51 | RRIRPRPPRLPRPRPRPFKSPRP | -0.222
52 | RRIRGRPPRLPRPRPRPGPQPRP | 0.719
53 | RRIRTRPPRLPRPRPRPDPRPRP | 0.0663
54 | RRIRARPPRLPRPRPRPSVQPRP | 0.629
55 | RRIRHRPPRLPRPRPRPTTTPRP | -0.0186
56 | RRIRCRPPRLPRPRPRPLDAPRP | 0.123
57 | RRIRRRPPRLPRPRPRPHSEPRP | 0.0888
58 | RRIRTRPPRLPRPRPRPIIPPRP | -0.279
59 | RRIRNRPPRLPRPRPRPHRNPRP | -0.176
60 | RRIRKRPPRLPRPRPRPWEFPRP | 0.504
61 | RRIRTRPPRLPRPRPRPVFKPRP | 0.0882
62 | RRIRKRPPRLPRPRPRPNGYPRP | 0.0664
63 | RRIRQRPPRLPRPRPRPMHEPRP | 0.187
64 | RRIRPRPPRLPRPRPRPHVQPRP | -0.0151
65 | RRIRERPPRLPRPRPRPPNQPRP | -0.118
66 | RRIRIRPPRLPRPRPRPNLPPRP | -0.173

Row | Sequence | shrunken log2 fold change
67 | RRIRLRPPRLPRPRPRPGTHPRP | -0.107
68 | RRIRDRPPRLPRPRPRPSYMPRP | -0.111
69 | RRIRERPPRLPRPRPRPPRFPRP | 0.26
70 | RRIRFRPPRLPRPRPRPFAWPRP | -0.0558
71 | RRIRNRPPRLPRPRPRPCHPPRP | -0.0698
72 | RRIRVRPPRLPRPRPRPESKPRP | 0.00683
73 | RRIRYRPPRLPRPRPRPSGKPRP | -0.447
74 | RRIRLRPPRLPRPRPRPVYQPRP | -0.0597
75 | RRIRIRPPRLPRPRPRPKRPPRP | 0.449
76 | RRIRYRPPRLPRPRPRPVAQPRP | 0.128
77 | RRIRPRPPRLPRPRPRPRVCPRP | 0.298
78 | RRIRLRPPRLPRPRPRPGNFPRP | -0.122
79 | RRIRVRPPRLPRPRPRPDVQPRP | -0.0199
80 | RRIRYRPPRLPRPRPRPVDAPRP | -0.42
81 | RRIRHRPPRLPRPRPRPDNWPRP | -0.335
82 | RRIRARPPRLPRPRPRPNSSPRP | 0.184
83 | RRIRIRPPRLPRPRPRPPSCPRP | -0.0736
84 | RRIRFRPPRLPRPRPRPFMTPRP | -0.333
85 | RRIRYRPPRLPRPRPRPLADPRP | -0.213
86 | RRIRARPPRLPRPRPRPDNIPRP | -0.256
87 | RRIRDRPPRLPRPRPRPGCDPRP | 0.79
88 | RRIRNRPPRLPRPRPRPFDRPRP | 0.0368

Row | Sequence | shrunken log2 fold change
89 | RRIRKRPPRLPRPRPRPKYRPRP | -0.00889
90 | RRIRQRPPRLPRPRPRPGPEPRP | 0.0674
91 | RRIRYRPPRLPRPRPRPTPTPRP | 0.451
92 | RRIRIRPPRLPRPRPRPAVDPRP | -0.0902
93 | RRIRFRPPRLPRPRPRPVPVPRP | 0.143
94 | RRIRHRPPRLPRPRPRPLWVPRP | -0.142
95 | RRIRKRPPRLPRPRPRPQEGPRP | -0.00136
96 | RRIRCRPPRLPRPRPRPVSIPRP | -0.549
97 | RRIRGRPPRLPRPRPRPIMAPRP | 0.401
98 | RRIRHRPPRLPRPRPRPIGHPRP | -0.0911
99 | RRIRWRPPRLPRPRPRPDRGPRP | -0.0836
100 | RRIRMRPPRLPRPRPRPRTNPRP | 0.295
101 | RRIRDRPPRLPRPRPRPGAMPRP | 0.408
102 | RRIRIRPPRLPRPRPRPRGDPRP | 0.389
103 | RRIRARPPRLPRPRPRPQHSPRP | 0.283
104 | RRIRARPPRLPRPRPRPTKMPRP | 0.319
105 | RRIRRRPPRLPRPRPRPMGIPRP | 0.0313
106 | RRIRMRPPRLPRPRPRPKGDPRP | 2.08
107 | RRIRWRPPRLPRPRPRPYVNPRP | -0.355
108 | RRIRSRPPRLPRPRPRPWTDPRP | -0.12
109 | RRIRNRPPRLPRPRPRPKSNPRP | -0.294

From the supplement of paper PMC9112550, “Optimization of the antimicrobial peptide Bac7 by deep mutational scanning” (BMC Biology, 2022)
